# Results published in publication PMC3488213 (Nucleic Acids Research, 2012).
# Biological target: the molecule itself
# Assay: AUC
protein,measurement,value
Y29W mutant of C.Esp1396I (natural protein) MESFLLSKVSFVIKKIRLEKGMTQEDLAWKSNLDRTYISGIERNSRNLTIKSLELIMKGLEVSDVVFFEMLIKEILKHD,stoichiometry N,2
